Assay results taken from PMC7788135, “OsMS188 Is a Key Regulator of Tapetum Development and Sporopollenin Synthesis in Rice”.

What was measured:
MBP-OsMS188 = target: T1, MBP-OsMS188 (Oryza sativa (rice; Nipponbare?), UniProt Q7XQN1 1-372); experiment: EMSA; unlabelled probe competes; LightShift Chemiluminescent EMSA Kit (Thermo); buffer, salt, pH and temperature not stated; settings: protein: recombinant; label: biotin; blunt
T1 sequence: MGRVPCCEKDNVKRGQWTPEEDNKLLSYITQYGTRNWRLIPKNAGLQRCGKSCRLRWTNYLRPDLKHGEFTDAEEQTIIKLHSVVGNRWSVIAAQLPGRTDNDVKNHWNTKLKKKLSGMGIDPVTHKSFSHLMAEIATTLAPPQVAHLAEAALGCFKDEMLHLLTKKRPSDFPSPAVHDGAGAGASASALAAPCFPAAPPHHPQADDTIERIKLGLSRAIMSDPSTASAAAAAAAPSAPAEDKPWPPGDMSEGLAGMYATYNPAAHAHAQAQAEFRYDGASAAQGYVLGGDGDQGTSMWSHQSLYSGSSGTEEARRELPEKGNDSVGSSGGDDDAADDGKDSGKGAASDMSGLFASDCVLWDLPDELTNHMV

MBP-bHLH142 = target: T2, MBP-bHLH142 (Oryza sativa (rice; Nipponbare?), UniProt Q5JNS0 1-379); experiment: EMSA; shifted band not reduced by unlabelled probe; authors conclude no direct binding; LightShift Chemiluminescent EMSA Kit (Thermo); buffer, salt, pH and temperature not stated; settings: protein: recombinant; chain copies: 2; label: biotin; blunt
T2 sequence: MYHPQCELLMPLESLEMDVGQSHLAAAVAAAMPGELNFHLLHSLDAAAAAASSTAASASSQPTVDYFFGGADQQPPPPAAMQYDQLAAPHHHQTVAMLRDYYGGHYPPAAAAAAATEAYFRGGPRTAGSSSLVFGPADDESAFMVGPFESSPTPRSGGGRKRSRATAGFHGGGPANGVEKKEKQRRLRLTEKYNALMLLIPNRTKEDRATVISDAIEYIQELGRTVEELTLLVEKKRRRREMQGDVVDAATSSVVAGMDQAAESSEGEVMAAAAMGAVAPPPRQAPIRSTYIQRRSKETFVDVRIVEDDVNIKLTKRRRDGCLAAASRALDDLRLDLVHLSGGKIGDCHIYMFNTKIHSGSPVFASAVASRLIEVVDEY

MBP-EAT1 = target: T3, MBP-EAT1 (Oryza sativa (rice; Nipponbare?), UniProt Q7X8R0 1-464); experiment: as above; settings: protein: recombinant; chain copies: 2; label: biotin; blunt
T3 sequence: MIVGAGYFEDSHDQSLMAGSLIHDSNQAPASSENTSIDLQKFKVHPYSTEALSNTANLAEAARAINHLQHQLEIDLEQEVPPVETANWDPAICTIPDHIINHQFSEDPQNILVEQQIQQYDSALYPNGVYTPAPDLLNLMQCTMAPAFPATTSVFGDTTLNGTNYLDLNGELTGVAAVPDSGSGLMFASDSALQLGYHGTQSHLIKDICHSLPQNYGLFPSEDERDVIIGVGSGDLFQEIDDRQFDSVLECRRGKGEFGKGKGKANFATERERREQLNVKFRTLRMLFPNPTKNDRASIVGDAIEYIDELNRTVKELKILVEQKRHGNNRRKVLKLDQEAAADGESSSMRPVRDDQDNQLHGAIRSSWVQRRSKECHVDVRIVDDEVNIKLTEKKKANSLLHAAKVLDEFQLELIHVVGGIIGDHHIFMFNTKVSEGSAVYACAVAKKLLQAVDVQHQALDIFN

MBP-TDR = MBP-TDR (Oryza sativa (rice; Nipponbare?), UniProt Q6YUS3 1-552); experiment: EMSA; unlabelled probe (5- to 200-fold) competes; LightShift Chemiluminescent EMSA Kit (Thermo); buffer, salt, pH and temperature not stated

B1: ABCG15 promoter probe (dsDNA)
DNA 1: AGTCTGCTTGGCGCTCTCTCTCTGAACCTGTCACTCTTTTTTTCTGTGTCT
DNA 2: AGACACAGAAAAAAAGAGTGACAGGTTCAGAGAGAGAGCGCCAAGCAGACT
MBP-OsMS188
  binding result: binds

B2: OsPKS2 promoter probe (dsDNA)
DNA 1: TACCTGCTCTCCACCAACCATTCTTTCCATGCATTCGTTGCCTCTCAACTGCACCAGCT
DNA 2: AGCTGGTGCAGTTGAGAGGCAACGAATGCATGGAAAGAATGGTTGGTGGAGAGCAGGTA
MBP-OsMS188
  binding result: binds

B3: CYP703A3 promoter probe (dsDNA)
DNA 1: GATATCACATGACTTGTACATAATGCCTAAAATGTGGATATCTGACCAGGTGCTTGGTG
DNA 2: CACCAAGCACCTGGTCAGATATCCACATTTTAGGCATTATGTACAAGTCATGTGATATC
MBP-OsMS188
  binding result: binds

B4: CYP704B2 promoter probe (dsDNA)
DNA 1: AATAGCCTATTCAGATGAAGTAGAATTCAGGTGAAGTAGAAACCAACTACTTTGGGTTC
DNA 2: GAACCCAAAGTAGTTGGTTTCTACTTCACCTGAATTCTACTTCATCTGAATAGGCTATT
MBP-OsMS188
  binding result: binds

B5: OsPKS1 promoter probe (dsDNA)
DNA 1: GCAAAAATGCAGGGTAAAACCAAAGAAGGGTGGAAGGAATGAACCTTCTGCTCCCCCC
DNA 2: GGGGGGAGCAGAAGGTTCATTCCTTCCACCCTTCTTTGGTTTTACCCTGCATTTTTGC
MBP-OsMS188
  binding result: binds

B6: OsMS188 promoter probe (dsDNA)
DNA 1: GAGAATGCATTTGGTGGTCGTGTGTTGTTTGTAACAACTGGGGAGC
DNA 2: GCTCCCCAGTTGTTACAAACAACACACGACCACCAAATGCATTCTC
MBP-bHLH142
  binding result: no binding
MBP-EAT1
  binding result: no binding
MBP-TDR
  binding result: binds

B7: DPW promoter probe (dsDNA)
DNA 1: AGGGAACTGAATCTTTTGCATGAACCACTGCATTTCCAAGAAGTGCACGAGCTTTGCA
DNA 2: TGCAAAGCTCGTGCACTTCTTGGAAATGCAGTGGTTCATGCAAAAGATTCAGTTCCCT
MBP-OsMS188
  binding result: binds
